Results reported in publication PMC2114938.

Biological target: actin filaments (UniProt P68139)
Experiment: immunogold electron microscopy

percent of filaments with gold label at the barbed end (immune): 17.4%
Substance: Cap Z(36/32) (from UniProt P13127 1-286; P14315 1-277) (complex)
